Where no end group is shown, it is not given here.
What was measured:
Experiment in all cases: cell-based or functional assay
OXTR = target: T1, OXTR (UniProt P30559 1-389)
T1 sequence (looked up): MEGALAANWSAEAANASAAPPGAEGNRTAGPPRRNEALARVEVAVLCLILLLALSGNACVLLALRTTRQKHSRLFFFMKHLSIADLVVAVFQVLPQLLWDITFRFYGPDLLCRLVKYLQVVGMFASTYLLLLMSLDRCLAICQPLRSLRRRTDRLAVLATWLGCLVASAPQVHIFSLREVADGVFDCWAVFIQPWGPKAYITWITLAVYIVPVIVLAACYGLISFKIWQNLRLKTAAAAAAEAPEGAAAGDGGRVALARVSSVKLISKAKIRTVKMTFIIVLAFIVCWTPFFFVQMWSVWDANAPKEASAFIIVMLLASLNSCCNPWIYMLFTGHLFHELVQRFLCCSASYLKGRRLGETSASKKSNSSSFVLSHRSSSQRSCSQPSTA

[1] = target: T2, relaxin-3 receptor (RXFP3) (UniProt Q9NSD7 1-469)
T2 sequence (looked up): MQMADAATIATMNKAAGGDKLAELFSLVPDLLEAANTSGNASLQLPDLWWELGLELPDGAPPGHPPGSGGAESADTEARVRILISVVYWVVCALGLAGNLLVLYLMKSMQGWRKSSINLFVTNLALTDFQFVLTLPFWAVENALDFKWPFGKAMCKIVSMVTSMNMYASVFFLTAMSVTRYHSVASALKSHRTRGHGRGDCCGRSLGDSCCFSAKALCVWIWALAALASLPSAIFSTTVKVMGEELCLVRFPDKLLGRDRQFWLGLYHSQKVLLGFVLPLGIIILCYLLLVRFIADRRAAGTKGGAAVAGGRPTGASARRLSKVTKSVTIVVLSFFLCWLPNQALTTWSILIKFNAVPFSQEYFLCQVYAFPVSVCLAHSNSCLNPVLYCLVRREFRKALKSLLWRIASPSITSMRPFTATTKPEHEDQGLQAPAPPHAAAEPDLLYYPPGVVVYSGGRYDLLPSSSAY

ADRA2A = target: T3, ADRA2A (UniProt P08913 1-465)
T3 sequence (looked up): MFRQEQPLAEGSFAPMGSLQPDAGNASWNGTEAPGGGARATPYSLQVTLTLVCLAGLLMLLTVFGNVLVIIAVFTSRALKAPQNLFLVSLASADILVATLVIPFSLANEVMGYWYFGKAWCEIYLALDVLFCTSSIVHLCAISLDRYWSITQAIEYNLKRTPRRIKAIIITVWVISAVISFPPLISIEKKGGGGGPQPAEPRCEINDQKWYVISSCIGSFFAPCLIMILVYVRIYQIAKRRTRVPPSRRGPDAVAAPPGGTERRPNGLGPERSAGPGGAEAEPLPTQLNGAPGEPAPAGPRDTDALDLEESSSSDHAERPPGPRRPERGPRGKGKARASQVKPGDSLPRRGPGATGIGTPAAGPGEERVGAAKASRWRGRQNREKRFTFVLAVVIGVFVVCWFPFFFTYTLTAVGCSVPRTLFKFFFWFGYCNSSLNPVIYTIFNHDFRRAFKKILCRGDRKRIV

MTNR1A = MTNR1A (UniProt P48039 1-350)
CRTH2 = target: T4, CRTH2 (UniProt Q9Y5Y4 1-395)
T4 sequence (looked up): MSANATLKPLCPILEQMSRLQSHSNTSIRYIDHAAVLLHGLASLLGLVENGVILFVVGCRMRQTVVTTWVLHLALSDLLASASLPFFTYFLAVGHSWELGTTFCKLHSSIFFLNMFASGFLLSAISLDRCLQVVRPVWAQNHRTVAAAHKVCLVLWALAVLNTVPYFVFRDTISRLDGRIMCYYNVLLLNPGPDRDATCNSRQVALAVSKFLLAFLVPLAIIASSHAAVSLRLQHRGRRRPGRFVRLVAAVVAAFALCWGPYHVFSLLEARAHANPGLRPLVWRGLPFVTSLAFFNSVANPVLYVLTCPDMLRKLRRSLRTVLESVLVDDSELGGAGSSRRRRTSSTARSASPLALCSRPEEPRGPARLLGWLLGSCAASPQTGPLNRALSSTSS

EDG6 = target: T5, EDG6 (UniProt O95977 1-384)
T5 sequence (looked up): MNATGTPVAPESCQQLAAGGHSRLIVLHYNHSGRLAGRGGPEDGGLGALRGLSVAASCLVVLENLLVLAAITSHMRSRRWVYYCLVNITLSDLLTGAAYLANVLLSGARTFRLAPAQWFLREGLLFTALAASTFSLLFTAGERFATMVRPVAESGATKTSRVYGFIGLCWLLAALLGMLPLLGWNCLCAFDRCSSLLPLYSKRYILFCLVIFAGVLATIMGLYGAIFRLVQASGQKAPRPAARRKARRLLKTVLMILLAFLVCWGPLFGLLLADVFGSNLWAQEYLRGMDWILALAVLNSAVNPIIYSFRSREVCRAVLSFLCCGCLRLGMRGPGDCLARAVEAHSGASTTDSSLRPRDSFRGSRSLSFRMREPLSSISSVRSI

HTR1A = target: T6, HTR1A (UniProt P08908 1-422)
T6 sequence (looked up): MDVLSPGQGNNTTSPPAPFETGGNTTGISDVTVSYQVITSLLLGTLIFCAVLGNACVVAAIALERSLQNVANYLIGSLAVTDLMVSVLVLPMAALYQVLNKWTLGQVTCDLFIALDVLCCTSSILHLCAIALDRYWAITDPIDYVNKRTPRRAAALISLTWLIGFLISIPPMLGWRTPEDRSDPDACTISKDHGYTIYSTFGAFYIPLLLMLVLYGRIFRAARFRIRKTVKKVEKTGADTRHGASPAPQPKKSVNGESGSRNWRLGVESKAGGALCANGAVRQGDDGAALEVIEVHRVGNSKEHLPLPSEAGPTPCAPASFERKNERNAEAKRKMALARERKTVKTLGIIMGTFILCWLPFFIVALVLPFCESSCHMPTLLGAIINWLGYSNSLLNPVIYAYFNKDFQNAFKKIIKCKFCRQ

ADRB1 = ADRB1 (UniProt P08588 1-477)
CALCRL-RAMP3 = CALCRL-RAMP3 (UniProt Q16602 23-461; O60896 24-148)
CALCRL-RAMP3, sequence (Q16602 23-461 limits assumed, chain 1 of 2): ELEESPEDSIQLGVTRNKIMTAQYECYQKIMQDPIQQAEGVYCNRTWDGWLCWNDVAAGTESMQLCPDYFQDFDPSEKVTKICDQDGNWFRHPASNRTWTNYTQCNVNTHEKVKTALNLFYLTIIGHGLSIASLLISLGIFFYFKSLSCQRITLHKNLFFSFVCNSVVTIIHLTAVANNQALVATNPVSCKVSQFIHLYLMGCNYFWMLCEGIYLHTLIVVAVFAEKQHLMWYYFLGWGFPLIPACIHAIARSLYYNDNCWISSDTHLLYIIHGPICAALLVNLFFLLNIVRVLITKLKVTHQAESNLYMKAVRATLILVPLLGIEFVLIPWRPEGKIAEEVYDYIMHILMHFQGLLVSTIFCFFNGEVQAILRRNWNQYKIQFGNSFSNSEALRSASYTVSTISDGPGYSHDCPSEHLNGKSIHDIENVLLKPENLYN
CALCRL-RAMP3, sequence (O60896 24-148 limits assumed, chain 2 of 2): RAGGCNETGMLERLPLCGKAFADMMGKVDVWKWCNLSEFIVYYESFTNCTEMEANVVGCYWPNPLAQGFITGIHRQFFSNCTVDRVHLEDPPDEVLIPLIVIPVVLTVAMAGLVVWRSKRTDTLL

ADRB1, sequence (P08588 whole entry): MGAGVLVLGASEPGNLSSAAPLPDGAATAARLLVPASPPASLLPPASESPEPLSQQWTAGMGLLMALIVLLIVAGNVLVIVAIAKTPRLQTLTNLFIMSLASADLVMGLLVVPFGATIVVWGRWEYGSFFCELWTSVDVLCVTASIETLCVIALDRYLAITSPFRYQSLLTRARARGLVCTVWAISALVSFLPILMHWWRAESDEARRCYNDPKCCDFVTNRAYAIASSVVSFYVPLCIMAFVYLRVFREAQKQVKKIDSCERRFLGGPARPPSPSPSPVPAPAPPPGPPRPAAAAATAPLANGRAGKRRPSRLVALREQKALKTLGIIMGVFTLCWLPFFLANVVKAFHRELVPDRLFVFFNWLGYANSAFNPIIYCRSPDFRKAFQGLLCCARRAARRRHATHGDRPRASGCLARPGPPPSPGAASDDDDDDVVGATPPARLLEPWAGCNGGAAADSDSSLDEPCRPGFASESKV
MTNR1A, sequence (P48039 whole entry): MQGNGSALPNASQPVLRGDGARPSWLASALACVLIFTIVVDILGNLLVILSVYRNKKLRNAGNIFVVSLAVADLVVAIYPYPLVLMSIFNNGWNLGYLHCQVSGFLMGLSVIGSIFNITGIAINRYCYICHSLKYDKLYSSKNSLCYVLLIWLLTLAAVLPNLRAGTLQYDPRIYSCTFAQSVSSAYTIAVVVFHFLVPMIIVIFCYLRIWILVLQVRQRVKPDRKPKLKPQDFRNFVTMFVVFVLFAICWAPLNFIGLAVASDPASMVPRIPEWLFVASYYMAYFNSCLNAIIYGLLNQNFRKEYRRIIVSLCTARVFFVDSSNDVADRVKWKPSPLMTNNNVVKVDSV

QATVGDVNTDRPGLLDLK (also: synthesised on Rink amide resin, C-terminal amide not given here outright) [octadecaneuropeptide (ODN)]
% Activity, arrestin, antagonist mode, 2.5 uM (OXTR): 1.3%
% Activity, arrestin, antagonist mode, 2.5 uM [1]: 31.4%
% Activity, arrestin, antagonist mode, 2.5 uM (ADRA2A): -27.2%
% Activity, arrestin, antagonist mode, 2.5 uM (MTNR1A): 2.2%
% Activity, arrestin, antagonist mode, 2.5 uM (CRTH2): 0.6%
% Activity, arrestin, antagonist mode, 2.5 uM (EDG6): 4.5%
% Activity, arrestin, antagonist mode, 2.5 uM (HTR1A): -6.2%
% Activity, arrestin, antagonist mode, 2.5 uM (ADRB1): 12.6%
% Activity, arrestin, antagonist mode, 2.5 uM (CALCRL-RAMP3): -3.5%

From patent US20260184748A1 (University of Pennsylvania, published 2026)
